Data from patent publication US20120295811, “APTAMERS DIRECTED AGAINST THE MATRIX PROTEIN-1 OF TYPE A INFLUENZA VIRUSES AND USES […]” (published 2012).

Target: Matrix protein-1 (M1) (Influenza A virus) (UniProt B4URD8)
Conditions: low-density aptamer microarray, 50x dilution

Substance tRNA has a binding signal (fluorescence units) of -55.
